Laboratory results: PMC12368520
Positions count from the first letter of the chain named. Names may count otherwise.

B1: Sb44, synthetic nanobody (sybody) against TGP (VHH)
VHH: QVQLVESGGGLVQAGGSLRLSCAASGFPVGRASMWWYRQAPGKEREWVAAISSYGWVTAYADSVKGRFTISRDNAKNTVYLQMNSLKPEDTAVYYCEVSVGTGYRGQGTQVTVSA
B2: Sb44 V100C (VHH)
VHH: B1 VHH with V100C

Legend:
[1] = target: Sb44, synthetic nanobody (sybody) against TGP; assay: SEC; TGP (or Cys mutant) and sybody (or mutant) mixed 1:3 on ice for 20 min; Superdex 200 Increase 10/300 GL; 150 mM NaCl, 20 mM HEPES pH 7.5; absorbance at 493 nm and 280 nm
[2] = target: Sb44 V100C; assay: SDS-PAGE (non-reducing); individually purified proteins; Laemmli sample buffer without DTT; 12% gel; Coomassie and in-gel fluorescence; shows disulfide-linked species
[3] = target: Sb44 V100C; assay: SEC; TGP (or Cys mutant) and sybody (or mutant) mixed 1:3 on ice for 20 min; Superdex 200 Increase 10/300 GL; 150 mM NaCl, 20 mM HEPES pH 7.5; absorbance at 493 nm and 280 nm

| Binder | stoichiometry N [1] | stoichiometry N [2] | stoichiometry N [3] |
| --- | --- | --- | --- |
| B1 | 2 | – | – |
| B2 | – | 2 | 2 |
